This assay concerns the target Lys-Nle peptide. As to the kind of experiment: SPR; Lys-Nle peptide immobilised via its terminal thiol group on a CM5 chip (1123.9 RU); BMP-2 flown at increasing concentrations in PBS-T at 50 µL/min; regeneration with Gly-HCl pH 1.5; nonfunctionalized reference channel; Langmuir fit (BIAevaluation). In general terms: In SPR one partner is held on a chip, and binding of the other changes the refractive index at the surface.

B1: bone morphogenetic protein-2 (BMP-2) (ligand)
chain: QAKHKQRKRLKSSCKRHPLYVDFSDVGWNDWIVAPPGYHAFYCHGECPFPLADHLNSTNHAIVQTLVNSVNSKIPKACCVPTELSAISMLYLDENEKVVLKNYQDMVVEGCGCR
In general, Kd refers to the equilibrium constant for the complex coming apart. Read a high Kd as a looser complex. Regarding B1, the Kd is 36.6 nM.

For the origin of these results see paper PMC9313494.
